Here are results for 167 variants from the RNAGym collection of RNA variant scans (doi:10.7554/elife.80360).

B1: Hammerhead Ribozyme (parent)
chain: ACCGGAUGUGCUUUCCGGUCUGAUGAGUCCGUGAGGACGAAACAG

Variants of B1 are the subject of this data set. As to the kind of experiment: self-cleavage, relative activity (ratio to wild type); higher = more cleavage; co-transcriptional.
In the case of U24A G45U, the self-cleavage was found to be 0.832. Take G5C C20A: the self-cleavage came out at 0.271. On to G27C A42C, for which the self-cleavage turned out to be 0.272. Regarding C2G C3G, the self-cleavage was 0.353. For U9C C16A, the self-cleavage turned out to be 1.04. The figure for C11G A41U is 0.382. As to C16G G39A, the self-cleavage is 0.254.

For G17U A26G, the self-cleavage was determined as 0.33. In the case of C30A A41U, the self-cleavage came out at 0.377. Consider G5C G8C, for which the self-cleavage came to 0.77. The figure for C16G U32A is 1.03. The figure for C2G U21C is 0.329; for A1C G25A it is 0.255; for C11U G22U it is 0.341. For the variant G35U A41G, the self-cleavage came out at 0.33. Consider G22U A44G, for which the self-cleavage is 0.711.

Consider G8A G39C, for which the self-cleavage is 0.298. Take C3G G31U: the self-cleavage is 0.609. Consider G10C G33C, for which the self-cleavage turned out to be 0.937. Regarding A6C A41C, the self-cleavage was 0.274. With U14C C29U, the self-cleavage was determined as 0.709.

For G27C C43A, the self-cleavage came to 0.291. As for U12A G39A, the self-cleavage turned out to be 0.257.

With G5U A42C, the self-cleavage came to 0.327.

On to U28G A42G, for which the self-cleavage is 0.264. For the variant U7C G10A, the self-cleavage is 1.02.

As for C3U U21A, the self-cleavage came to 0.747.

Regarding U19A U28A, the self-cleavage is 0.368. The result for C3A G18U reads 0.324; that for G10A A34G, 0.836; that for C38G A42U, 0.354. As to U12C G36U, the self-cleavage was determined as 0.498. As for U28G C38A, the self-cleavage is 0.64. The figure for C3A U9A is 0.476; for A6G C38G it is 0.448; for A6G C38U it is 0.629. As to G31C G45A, the self-cleavage worked out at 0.438. For the variant C2G U13A, the self-cleavage came out at 0.353. The figure for G4U U32A is 0.507. The result for A34G C43A reads 0.32; that for U9A C11G, 1.57; that for A26G C38U, 0.337. For U9A U24C, the self-cleavage came to 1.38. The figure for G8A U14G is 0.988; for U9A G36C it is 0.573; for U13A C15U it is 0.907. In the case of G17A C38A, the self-cleavage was found to be 0.488. Turning to A26U G33A, the self-cleavage is 0.961. Regarding U12A A41G, the self-cleavage is 0.32. For U7C G45U, the self-cleavage is 0.622.

For G18C G39U, the self-cleavage is 0.372. With C11A G33A, the self-cleavage came out at 1.22. The figure for C11A G33U is 1.21. On to U19G C30A, for which the self-cleavage came out at 0.376. Regarding G25C G36U, the self-cleavage worked out at 0.309. For the variant C15U C30U, the self-cleavage turned out to be 0.735. A1G G33U: the self-cleavage turned out to be 1.7. For C16G C43U, the self-cleavage was 0.285.

As to G17C G33U, the self-cleavage came out at 0.623. G5U G18A: the self-cleavage turned out to be 0.334. For the variant A1U G10A, the self-cleavage is 0.815. With A26C C29G, the self-cleavage stood at 0.303. As for G5A G25A, the self-cleavage worked out at 0.327. As for U14G U19G, the self-cleavage was determined as 0.422. With A6C U32G, the self-cleavage was found to be 0.477. With A40U, the self-cleavage is 0.366. The figure for C15G G36A is 0.417; for U19C U32C it is 0.565; for G10A U21C it is 0.815. For U13C A34G, the self-cleavage amounted to 0.776. A1C A42U: the self-cleavage is 0.322. In the case of U7C C38A, the self-cleavage is 0.702. G31A C38G: the self-cleavage worked out at 0.592. For C15A U32C, the self-cleavage is 0.952. As for A40G A44G, the self-cleavage turned out to be 0.571.

Consider G4C G27C, for which the self-cleavage was found to be 0.412.

With U19C C43G, the self-cleavage was found to be 0.393. For U14A G18U, the self-cleavage stood at 0.644. C2A A37U: the self-cleavage was found to be 0.368. The result for C20A U28A reads 0.435; that for G18U G22U, 0.378.

As for G10U G33U, the self-cleavage was 1.05.

As for U12G G36U, the self-cleavage amounted to 0.471. In the case of G31U A41C, the self-cleavage is 0.388. Turning to G18A G39A, the self-cleavage is 0.339.

As for A23U G45U, the self-cleavage came out at 0.461. For the variant C15U C16G, the self-cleavage came to 0.708. The result for U9A reads 1.02. Regarding G17A G45U, the self-cleavage was found to be 0.411. The figure for G10C A23U is 0.447. In the case of G17A U28A, the self-cleavage is 0.42. The result for U12G G22A reads 0.338. Regarding C2U U19G, the self-cleavage is 0.319. For the variant A26C G31U, the self-cleavage stood at 0.727. Regarding C16A G33U, the self-cleavage amounted to 1.4.

G33A G35U: the self-cleavage worked out at 0.866. With G36C A44G, the self-cleavage is 0.588. On to U14C G25U, for which the self-cleavage came out at 0.32. A26G G27U: the self-cleavage amounted to 0.322.

Take G18U A42G: the self-cleavage came out at 0.37. As to A23U A26U, the self-cleavage turned out to be 0.374. In the case of C3G G4U, the self-cleavage came out at 0.322. The figure for C11G U28A is 0.809. Take U9C G22C: the self-cleavage worked out at 0.266. The result for C11G C30U reads 1.28; that for A6C G10U, 1.01; that for C2G U19C, 0.308. Take U32A A42C: the self-cleavage turned out to be 0.315. As for G27C G33U, the self-cleavage came out at 0.686. Regarding U7A G8C, the self-cleavage was 1.21. For the variant C3A U13A, the self-cleavage was 1.33. Turning to A23U G36C, the self-cleavage was determined as 0.327. Turning to G39U A44G, the self-cleavage stood at 0.676. For G10U G18C, the self-cleavage was determined as 0.682.

Take U14A A40C: the self-cleavage stood at 0.491. Turning to U9G C43G, the self-cleavage stood at 0.455. For G8U G39A, the self-cleavage is 0.395. Regarding G10U U19C, the self-cleavage came to 0.665. The figure for G8U A23U is 0.324; for U12G A41G it is 0.339.

On to U13C A40C, for which the self-cleavage turned out to be 0.725. On to C29A A40G, for which the self-cleavage turned out to be 0.294. C29A A44C: the self-cleavage is 0.323. Regarding U12A G33C, the self-cleavage is 1.37.

For the variant A40U A42C, the self-cleavage came out at 0.369. C3G C16U: the self-cleavage is 0.327. Turning to G17A U21G, the self-cleavage was determined as 0.39. For the variant A26C A40C, the self-cleavage was found to be 0.274. In the case of U12A C38U, the self-cleavage was determined as 0.87. As to C20A G36A, the self-cleavage was 0.33. On to C20U G31U, for which the self-cleavage worked out at 0.718. The result for C20U G31A reads 0.783. Consider C2G G27A, for which the self-cleavage is 0.282. Take G22U C29U: the self-cleavage stood at 0.251. Take G8C G33U: the self-cleavage was found to be 0.971.

Consider G27A G33U, for which the self-cleavage stood at 0.976. With G4A C38G, the self-cleavage was 0.344. As to C3U U19G, the self-cleavage was 0.38.

As for C20A G39A, the self-cleavage stood at 0.347. The figure for C2A U19G is 0.381; for A6U G39A it is 0.281. The result for A1C C2A reads 1.75; that for G35U A40C, 0.374.

For G31C G39C, the self-cleavage worked out at 0.314. Take C15G C29U: the self-cleavage worked out at 0.822. With C2G A26G, the self-cleavage stood at 0.292. As to G4A A23C, the self-cleavage is 0.337. As to U13C U28G, the self-cleavage amounted to 0.935. Regarding C3U G22A, the self-cleavage turned out to be 0.381.

As for C15G G45C, the self-cleavage is 0.379. In the case of U7A G35C, the self-cleavage was 0.707. In the case of G18C G45A, the self-cleavage was found to be 0.393. For the variant A37G A41C, the self-cleavage amounted to 0.358.

Take A26G C30G: the self-cleavage came to 0.245. On to G17A A44G, for which the self-cleavage was found to be 0.742. As to A6C U24A, the self-cleavage amounted to 0.707. With U9C G39A, the self-cleavage stood at 0.313.

On to C29G A40C, for which the self-cleavage worked out at 0.288. On to G10U G22C, for which the self-cleavage came to 0.351. In the case of G10U G22A, the self-cleavage was found to be 0.354. For G18C C30G, the self-cleavage came to 0.372.

As for C3A U19C, the self-cleavage stood at 0.277. The figure for U32A C38U is 0.915. As to G10U G27C, the self-cleavage was 0.861. Regarding G17C U28G, the self-cleavage amounted to 0.395. As to G17C G31A, the self-cleavage was determined as 0.699. For C11A G39C, the self-cleavage is 0.438.
